From US7786083B2, “Metastin derivatives and use thereof” (Takeda Pharmaceutical Company Limited, priority 2006, dated 2010)
*1 amine or outer side, *2 acyl side, *3 side chain or, on linkers, in order; H or OH if unused. Where a SMILES comes first, the peptide text is derived from it. [ ]: non-standard residue; d: D form. Ser(Me) = O-methylserine, COC[C@H](N[*:1])C(=O)[*:2]; Arg(Me) = CNC(=N)NCCC[C@H](N)C(=O)O; Dap(CONH2) = NC(=O)NC[C@H](N)C(=O)O; Ala(cPr) = N[C@@H](CC1CC1)C(=O)O; Hyp = O=C(O)[C@@H]1C[C@@H](O)CN1; tBuAla = CC(C)(C)C[C@H](N)C(=O)O; Cha = N[C@@H](CC1CCCCC1)C(=O)O; Cba = N[C@@H](CC1CCC1)C(=O)O; Nle = CCCC[C@H](N)C(=O)O; Dap = NC[C@H](N)C(=O)O

What follows are molecules tested against metastin receptor (OT7T175) stably expressed on CHO/dhfr- cells (human or rat, not given) (assay: cell-based or functional assay). Conditions: not given.

Molecule | Specific Activity (EC50 of test compound based on EC50 of Metastin (45-54)); agonist activity, intracellular calcium ion level, FLIPR (ratio to Metastin (45-54))
Ac-[dY][Hyp]NT[Cha]G[Cha][Arg(Me)]W-NH2 (SMILES CNC(=N)NCCC[C@H](NC(=O)[C@H](CC1CCCCC1)NC(=O)CNC(=O)[C@H](CC1CCCCC1)NC(=O)[C@@H](NC(=O)[C@H](CC(N)=O)NC(=O)[C@@H]1C[C@@H](O)CN1C(=O)[C@@H](Cc1ccc(O)cc1)NC(C)=O)[C@@H](C)O)C(=O)N[C@@H](Cc1c[nH]c2ccccc12)C(N)=O) [des(1)-Ac-[D-Tyr2,Hyp3,Thr5,Cha6,8,Arg(Me)9,Trp10]MS10] | 3.5
Ac-[dY][Hyp]NTF[Ser(Me)]L[Arg(Me)]W-NH2 [des(1)-Ac-[D-Tyr2,Hyp3,Thr5,Ser(Me)7,Arg(Me)9,Trp10]MS10] | 1.2
Ac-[dY][Hyp][Dap(CONH2)]T[Cha]GLRW-NH2 (also: Gly6-Leu7 -CONH- replaced by -CH2CH2-) [des(1)-Ac-[D-Tyr2,Hyp3,Alb4,Thr5,Cha6,Gly7Ψ(CH2CH2)Leu8,Trp10]MS10] | 1.3
Ac-[dY][Hyp]NT[Cha]GLRW-NH2 (also: Gly6-Leu7 -CONH- replaced by -CH2CH2-) [des(1)-Ac-[D-Tyr2,Hyp3,Thr5,Cha6,Gly7Ψ(CH2CH2)Leu8,Trp10]MS10] | 1.1
Ac-[dY][Hyp][Dap(CONH2)]S[Cha]G[Ala(cPr)][Arg(Me)]W-NH2 [des(1)-Ac-[D-Tyr2,Hyp3,Alb4,Ser5,Cha6,Ala(cPr)8,Arg(Me)9,Trp10]MS10] | 0.5
Ac-[dY][Hyp]NT[Cha]G[tBuAla][Arg(Me)]W-NH2 (SMILES CNC(=N)NCCC[C@H](NC(=O)[C@H](CC(C)(C)C)NC(=O)CNC(=O)[C@H](CC1CCCCC1)NC(=O)[C@@H](NC(=O)[C@H](CC(N)=O)NC(=O)[C@@H]1C[C@@H](O)CN1C(=O)[C@@H](Cc1ccc(O)cc1)NC(C)=O)[C@@H](C)O)C(=O)N[C@@H](Cc1c[nH]c2ccccc12)C(N)=O) [des(1)-Ac-[D-Tyr2,Hyp3,Thr5,Cha6,Leu(Me)8,Arg(Me)9,Trp10]MS10] | 1.4
Ac-[dY][Hyp]NT[Cha]G[Nle][Arg(Me)]W-NH2 (SMILES CCCC[C@H](NC(=O)CNC(=O)[C@H](CC1CCCCC1)NC(=O)[C@@H](NC(=O)[C@H](CC(N)=O)NC(=O)[C@@H]1C[C@@H](O)CN1C(=O)[C@@H](Cc1ccc(O)cc1)NC(C)=O)[C@@H](C)O)C(=O)N[C@@H](CCCNC(=N)NC)C(=O)N[C@@H](Cc1c[nH]c2ccccc12)C(N)=O) [des(1)-Ac-[D-Tyr2,Hyp3,Thr5,Cha6,Nle8,Arg(Me)9,Trp10]MS10] | 0.6
Ac-[dY][Hyp]NT[Cha]G[Cba][Arg(Me)]W-NH2 (SMILES CNC(=N)NCCC[C@H](NC(=O)[C@H](CC1CCC1)NC(=O)CNC(=O)[C@H](CC1CCCCC1)NC(=O)[C@@H](NC(=O)[C@H](CC(N)=O)NC(=O)[C@@H]1C[C@@H](O)CN1C(=O)[C@@H](Cc1ccc(O)cc1)NC(C)=O)[C@@H](C)O)C(=O)N[C@@H](Cc1c[nH]c2ccccc12)C(N)=O) [des(1)-Ac-[D-Tyr2,Hyp3,Thr5,Cha6,Ala(cBu)8,Arg(Me)9,Trp10]MS10] | 0.5
Ac-[dY]ENT[Cha]G[Ala(cPr)]RW-NH2 (SMILES CC(=O)N[C@H](Cc1ccc(O)cc1)C(=O)N[C@@H](CCC(=O)O)C(=O)N[C@@H](CC(N)=O)C(=O)N[C@H](C(=O)N[C@@H](CC1CCCCC1)C(=O)NCC(=O)N[C@@H](CC1CC1)C(=O)N[C@@H](CCCNC(=N)N)C(=O)N[C@@H](Cc1c[nH]c2ccccc12)C(N)=O)[C@@H](C)O) [des(1)-Ac-[D-Tyr2,Glu3,Thr5,Cha6,Ala(cPr)8,Trp10]MS10] | 0.4
Ac-[dY][Hyp]NT[Cha]G[Ala(cPr)]RW-NH2 (SMILES CC(=O)N[C@H](Cc1ccc(O)cc1)C(=O)N1C[C@H](O)C[C@H]1C(=O)N[C@@H](CC(N)=O)C(=O)N[C@H](C(=O)N[C@@H](CC1CCCCC1)C(=O)NCC(=O)N[C@@H](CC1CC1)C(=O)N[C@@H](CCCNC(=N)N)C(=O)N[C@@H](Cc1c[nH]c2ccccc12)C(N)=O)[C@@H](C)O) [des(1)-Ac-[D-Tyr2,Hyp3,Thr5,Cha6,Ala(cPr)8,Trp10]MS10] | 0.5
Ac-[dY][Hyp]NT[Cha]GL[Arg(Me)]W-NH2 (also: Gly6-Leu7 -CONH- replaced by -CH2S-) [des(1)-Ac-[D-Tyr2,Hyp3,Thr5,Cha6,Gly7Ψ(CH2S)Leu8,Arg(Me)9,Trp10]MS10] | 1.7
Ac-[dY][Hyp][Dap(CONH2)]T[Cha]GL[Arg(Me)]W-NH2 (also: Gly6-Leu7 -CONH- replaced by -CH2CH2-) [des(1)-Ac-[D-Tyr2,Hyp3,Alb4,Thr5,Cha6,Gly7Ψ(CH2CH2)Leu8,Arg(Me)9,Trp10]MS10] | 1.1
Ac-[dY][Hyp][Dap(CONH2)]G[Cha]G[Ala(cPr)][Arg(Me)]W-NH2 [des(1)-Ac-[D-Tyr2,Hyp3,Alb4,Gly5,Cha6,Ala(cPr)8,Arg(Me)9,Trp10]MS10] | 0.7
Ac-[dY][Hyp]NT[Cba]G[Ala(cPr)][Arg(Me)]W-NH2 [des(1)-Ac-[D-Tyr2,Hyp3,Thr5,Ala(cBu)6,Ala(cPr)8,Arg(Me)9,Trp10]MS10] | 0.7
Ac-[dY][Hyp]NTFGL[Arg(Me)]W-NH2 (also: Phe5-Gly6 amide bond replaced by -CH2S-) [des(1)-Ac-[D-Tyr2,Hyp3,Thr5,Phe6Ψ(CH2S)Gly7,Arg(Me)9,Trp10]MS10] | 0.7
Ac-[dY][Hyp][Dap(CONH2)]A[Cha]G[Ala(cPr)][Arg(Me)]W-NH2 [des(1)-Ac-[D-Tyr2,Hyp3,Alb4,Ala5,Cha6,Ala(cPr)8,Arg(Me)9,Trp10]MS10] | 0.5
Ac-[dY][Hyp][Dap(CONH2)]T[Cha]G[Ala(cPr)][Arg(Me)]W-NH2 [des(1)-Ac-[D-Tyr2,Hyp3,Alb4,Thr5,Cha6,Ala(cPr)8,Arg(Me)9,Trp10]MS10] | 0.5
Ac-[dY][Hyp][Dap(CONH2)][Dap][Cha]G[Ala(cPr)][Arg(Me)]W-NH2 [des(1)-Ac-[D-Tyr2,Hyp3,Alb4,Dap5,Cha6,Ala(cPr)8,Arg(Me)9,Trp10]MS10] | 0.7

What follows are molecules tested on metastin receptors (assay: Measurement of agonist activity by assaying changes in intracellular calcium ion level (FLIPR, Fluo-4 NW)). Conditions: specific activity of the EC50 of a test compound based on the EC50 of Metastin (45-54), metastin receptor expression CHO cells.
Type: cell-based, human
Experimental: 1) Preparation of Human Metastin and Rat Metastin Stable Expression Cell Lines
Human metastin and rat metastin stable expression cell lines were obtained by transfecting the expression plasmid for animal cells into CHO/dhfr^− cells using CellPhect Transfection Kit (manufactured by GE Healthcare). First, 240 μL of Buffer A (attached to CellPhect Transfection Kit) was added to 9.6 μg of plasmid DNA dissolved in 240 μL of distilled water followed by stirring. After the mixture was settled for 10 minutes, 480 μL of Buffer B (attached to CellPhect Transfection Kit) was added to the mixture, which was vigorously stirred to form liposomes containing the DNA. Then, 4×10^5 CHO/dhfr^− cells (obtained from ATCC) were inoculated on a 60 mm Petri dish. After culturing the cells in Ham's F-12 medium (manufactured by Nissui Seiyaku Co., Ltd.) supplemented with 10% fetal bovine serum (manufactured by BIO […], Inc.) at 37° C. for 2 days in 5% carbon dioxide gas, […] of the liposomes were dropwise added to the cells on the Petri dish. After culturing the cells in a CO2 incubator (5% CO2, 37° C.) for 6 hours, the cells were washed twice with serum-free Ham's F-12 medium and 3 mL of 15% glycerol was added to the cells on the Petri dish followed by treatment for 2 minutes. The cells were again washed twice with serum-free Ham's F-12 medium followed by incubation in Ham's F-12 medium supplemented with 10% fetal bovine serum in a CO2 incubator (5% CO2, 37° C.) for 15 hours. The cells were dispersed by trypsin treatment to recover from the Petri dish. The recovered cells were inoculated on a 6-well plate in 1.25×10^4 cells each/well and incubation was initiated in a CO2 incubator (5% CO2, 37° C.) in Dulbecco's modified Eagle medium (DMEM, manufactured by Nissui Seiyaku) containing 10% dialyzed fetal bovine serum (manufactured by JRH BIOSCIENCES, Inc.). The plasmid-transfected CHO transformants grew in the medium but the non-transfected cells gradually died, accordingly the medium was exchanged on Days 1 and 2 after the initiation of incubation to remove the dead cells. Approximately 20 colonies of the CHO transformants that kept growing on Days 8 to 10 after the incubation were isolated. From the cells in these colonies, cells showing high reactivity with the ligand peptide metastin (hereinafter merely referred to as h175 KB19 and h175 KB29 strains) were selected to provide for the following experiment.
Human metastin expression CHO cell line (h175 KB19 strain is described in a separate section) and rat metastin expression CHO cell line (h175 KB29 strain is described in a separate section) were seeded in a 96-well plate (type 3904, manufactured by Corning) at 3×10^4 cells/well, followed by incubation in a CO2 incubator (5% CO2, 37° C.) for 24 hours. For the medium, MEMα medium (nucleic acid-free, manufactured by Nikken Bio Medical Laboratory) supplemented with dialyzed 10% fetal bovine serum (manufactured by Thermo, MultiSer) was used.
3) Loading with Fluo-4 NW in Cells
As an assay buffer, 1× Hanks' balanced salt solution (HBSS, manufactured by GIBCO) supplemented with 0.1% BSA, 20 mM HEPES (pH 7.4, manufactured by GIBCO) and 1 mM Probenecid (manufactured by Molecular Probes) was prepared. The medium in the wells of the cell-seeded plate was removed and 100 μL each of the assay buffer (kept warm at 37° C.) was added to each well. After 10 mL of the assay buffer (the volume for assaying two plates) was charged in one Fluo-4NW dye mix (Component A, Fluo-4 NW calcium assay kit (starter pack), manufactured by Molecular Probes) bottle, the mixture was gently stirred to prepare the Fluo-4 NW loading solution. This loading solution was charged in each well by 50 μl each and reacted in a CO2 incubator (5% CO2, 37° C.) for 30 minutes for loading with Fluo-4 NW into the cells. Subsequently, the cells were settled at room temperature (25° C.) for 15 minutes and then used for assay.
4) Measurement of Agonist Activity […]

Molecule | Specific Activity
CNC(=N)NCCC[C@H](NC(=O)[C@H](CC(C)C)NC(=O)CNC(=O)[C@H](Cc1ccccc1)NC(=O)[C@@H](NC(=O)[C@H](CC(N)=O)NC(=O)[C@@H]1C[C@@H](O)CN1C(=O)[C@@H](Cc1ccc(O)cc1)NC(C)=O)[C@@H](C)O)C(=O)N[C@@H](Cc1c[nH]c2ccccc12)C(N)=O [Compound No. 796, des(1)-Ac-[D-Tyr2,Hyp3,Thr5,Arg(Me)9,Trp10]MS10] (Ac-[dY][Hyp]NTFGL[Arg(Me)]W-NH2) | 1.2
